Tests used:
Conditions in all cases: protein: recombinant; tags: none stated; hairpin (M-fold predicted)
[1] = biological target: T1, 5/B/6 metallo-beta-lactamase (MBL) wild type (Bacillus cereus 5/B/6, UniProt P14488 30-256); assay: enzyme inhibition; cefuroxime substrate; NMR: 20 mM MOPS, 1 mM ZnSO4, pH 7, 25 C (buffer stated for assignment sample; titration at 25 C); kinetic assay buffer not in the material
T1 sequence: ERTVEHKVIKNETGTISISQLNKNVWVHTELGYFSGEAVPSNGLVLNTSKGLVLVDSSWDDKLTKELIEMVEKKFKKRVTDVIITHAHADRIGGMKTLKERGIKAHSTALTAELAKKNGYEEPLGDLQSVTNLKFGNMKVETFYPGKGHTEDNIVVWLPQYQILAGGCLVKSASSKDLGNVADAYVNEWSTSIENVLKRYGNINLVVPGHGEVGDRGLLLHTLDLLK

[2] = biological target: T1, 5/B/6 metallo-beta-lactamase (MBL) wild …; assay: enzyme inhibition kinetics (uncompetitive KI'); cefuroxime substrate; NMR: 20 mM MOPS, 1 mM ZnSO4, pH 7, 25 C (buffer stated for assignment sample; titration at 25 C); kinetic assay buffer not in the material
[3] = biological target: T1, 5/B/6 metallo-beta-lactamase (MBL) wild …; assay: NMR 1H-15N HSQC titration; 750 uM enzyme, 0-4 eq 10-mer; range of fits for Lys78, Lys104, Lys107; 1 mM Zn2+ (NMR buffer); NMR: 20 mM MOPS, 1 mM ZnSO4, pH 7, 25 C (buffer stated for assignment sample; titration at 25 C); kinetic assay buffer not in the material

With CCAAACTTGG (structured_DNA) [10-mer DNA aptamer] the IC50 [1] was 120 ± 5 nM, the Ki [2] was 63 ± 3 nM and the Kd [3] was 153 nM.

From publication PMC6476477, “A DNA aptamer reveals an allosteric site for inhibition in metallo-β-lactamases”
